# Entries after “also recorded” stand apart in the source; their conditions may differ. Bridges are numbered along the chain shown (N, C = ends). Where no end group is shown, it is not given here.
# Columns and labels:
# human recombinant LANCL1 = target: T1, human recombinant LANCL1 (Homo sapiens, UniProt O43813); assay: In-gel fluorescence: photolabelling of recombinant LANCL1 with PAL probes, with or without excess competitor; assay type: binding
# T1 construct: purchased ABCAM ab181923; host or cells: E. coli
# Experimental: The in-gel fluorescence protocol can be briefly described as follows:
# 1. LANCL1 Labelling, Assay on 96 Well Plate, Volume of the Reaction 40 μl in PBS
# 3 μg/well of human recombinant LANCL1 (ABCAM catalog no. ab181923, 1 mg/ml; expressed in E. Coli and incorporating an N-terminal 23 amino acid hexaHis tag; UniProtKB/Swiss-Prot Accession no: O43813);
# • Vehicle DMSO • ±LAT8881 (a cyclic peptide fragment of human growth hormone; SEQ ID NO:1) • SEQ ID NO:1) as competitor @ 25, 50, 100 or 200 μM, pre-incubation 10 min, 4 μl of a stock solution 10-fold concentrated • ±LAT9991-PAL, LAT7771-PAL or LAT9993-PAL probes @ 1 μM, incubation 30 min at room temperature on a plate agitator (protected from light), 4 μl of a stock solution @10 μM
# • Irradiation @ 365 nm 20 min (4° C., on a support containing ice) Transfer 40 μl in a clean Eppendorf tube
# • Reduction: DTT 10 mM, 30 min @ 56° C. • Alkylation: Iodoacetamide 30 mM, 45 min @ RT Click-iT AzideTamra of 60 μL samples
# (§1) • Acetone Precipitation −20° C. ON • Dry pellet resuspended in 30 μL 1% SDS in 50 mM Tris-HCl pH 7.5 • Photolabeled LANCL1 was tagged with tetramethylrhodamine (TAMRA) azide @100 μM TAMRA azide by copper click chemistry using the Click-iT Protein Reaction Buffer Kit (ThermoFisher Scientific) during 30 minutes • Precipitation using the chloroform-methanol method, pellet was air-dried for 10 min at room temperature, resuspended in 30 μL SDS loading buffer (Bio Rad's XT Sample Buffer containing 2.5% v/v 2-mercaptoethanol) and heated (60° C., 30 min)
# (§2) • SDS-PAGE (4-15% Criterion™ TGX Stain-Free™ Protein Gel, Bio Rad) • Analyzed by in-gel fluorescence scanning using a ChemiDoc™ MP Imaging System (Bio Rad) with a green LED light as an excitation source and a BP600/20 nm emission filter
# DRG neurons = assay: Confocal microscopy of PAL probe binding in DRG cell cultures, spinal nerve ligation model; assay type: cell-based, Sprague Dawley rats; details: specificity control; excess unlabeled competitor
# From the text: LAT9991-PAL was used in conjunction with confocal microscopy to visualise the location of potential target(s), noting that analgesic agents can have activity at several sites, either on central or peripheral neurons, or on glial or inflammatory cells that are in proximity to neurons. To identify the cell types to which LAT9991-PAL binds, 3-day cell cultures of DRG from neuropathic or control sites were taken from animals with neuropathy due to spinal nerve ligation. Briefly, L5 and L6 spinal nerves of male Sprague Dawley rats were ligated to create a robust and long-lasting mechanical allodynia of the injured hind paw. Presence of neuropathic pain was confirmed 2 weeks post-spinal nerve ligation surgeries (day 14) using von Frey (VF) filaments (up-and-down method) applied on ipsilateral (injured) and contralateral (non-injured) paw). Live DRG cells were dissected out as described previously and incubated with LAT9991-PAL for 1 hour prior to UV irradiation to fix the binding in situ. […] As a specificity control, the binding of LAT9991-PAL to the neuropathic DRG was blocked in the presence of an excess amount of unlabeled LAT9991 peptide.
# human recombinant LANCL2 = target: T2, human recombinant LANCL2 (Homo sapiens, UniProt Q9NS86); assay: In-gel fluorescence: photolabelling of recombinant LANCL2 with PAL probe, with or without excess LAT8881; assay type: binding; details: in-gel fluorescence after UV cross-linking
# T2 construct: human recombinant LANCL2 (amino acid residues 1-450); GST (N); purchased ABCAM ab163277; host or cells: wheat germ
# T2 sequence (Q9NS86 1-450): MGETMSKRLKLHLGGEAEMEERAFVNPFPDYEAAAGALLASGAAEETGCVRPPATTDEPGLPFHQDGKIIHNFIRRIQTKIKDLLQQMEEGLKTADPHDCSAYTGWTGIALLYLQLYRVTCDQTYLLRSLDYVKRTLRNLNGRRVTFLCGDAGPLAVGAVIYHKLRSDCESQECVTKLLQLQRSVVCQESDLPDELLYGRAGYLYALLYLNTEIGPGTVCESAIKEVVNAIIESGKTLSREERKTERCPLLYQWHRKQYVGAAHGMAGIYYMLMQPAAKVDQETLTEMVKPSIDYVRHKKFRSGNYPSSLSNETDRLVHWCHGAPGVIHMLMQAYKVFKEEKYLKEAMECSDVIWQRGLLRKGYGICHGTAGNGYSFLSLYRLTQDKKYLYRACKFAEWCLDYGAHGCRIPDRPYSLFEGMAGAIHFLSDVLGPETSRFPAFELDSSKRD
# Experimental: (§3) An in-gel fluorescence protocol was followed to determine whether the cyclic peptides bound to LANCL2 and LANCL3. Briefly:
# (§4) 1. LANCL2 and LANCL3 Labelling, Assay on 96 Well Plate, Volume of the Reaction 40 μl in PBS
# • 1 μg/well of human recombinant LANCL2 (amino acid residues 1-450; ABCAM catalog no. ab163277, ˜0.07 mg/ml; expressed in wheat germ and incorporating an N-terminal GST tag; UniProt Accession no: Q9NS86);
# • Vehicle DMSO • ±LAT8881 (a cyclic peptide fragment of human growth hormone; SEQ ID NO:1) • SEQ ID NO:1 as competitor @ 50, 100 or 200 μM, pre-incubation 10 min, 4 μl of a stock solution 10-fold concentrated • ±LAT9991-PAL probes @ 1 μM, incubation 30 min at room temperature on a plate agitator (protected from light), 4 μl of a stock solution @10 μM
# (§5) • Irradiation @ 365 nm 20 min (4° C., on a support containing ice) • Transfer 40 μl in a clean Eppendorf tube
# (§6) • Reduction: DTT 10 mM, 30 min @ 56° C. • Alkylation: Iodoacétamide 30 mM, 45 min @ RT Click-iT AzideTamra of 60 μL samples
# as §1, with “for” for “during”, “Rad” for “Rad's”
# as §2
# [1] = test system: tissue homogenates of nerve from neuropathic animals; assay: PAL cross-linking to nerve tissue homogenates and gel separation; assay type: binding
# From the text: Using a ligand driven approach, the present inventors utilized the photo-activatable cross-linking PAL from Evotec A.G. (Photo-Activated Labelling) technology that derivatizes the active cyclic peptides to allow UV-induced cross-linking to binding targets (described herein as peptide/SEQ ID NO:X-PAL). This allows subsequent detection in cells, gels of tissue isolates or in pull-down of the peptide/target complex for sequencing by mass spectroscopy (PALMS).
# LAT9991-PAL was cross-linked to tissue homogenates of nerve from neuropathic animals.
# LANCL1 = LANCL1 (Rattus norvegicus, UniProt Q9QX69); assay: Mass spectrometry of excised gel bands from PAL cross-linked homogenates (PALMS); assay type: binding; parameters: from tissue; host or cells: nerve tissue homogenate of neuropathic animals; details: vs un-crosslinked samples (CU) and samples with excess LAT8881 (COMP); 37 kDa band
# From the text: Having identified at least three molecular weight bands as representative of the potential targets, the 12-15 kD, 37 kD and 50 kD regions of the gel were excised, subjected to limited proteolysis and analysed by mass spectrometry to identify peptides from proteins that were differentially enriched. The detection of at least two different peptides from a protein that is enriched in the LAT9991-PAL cross-linked samples when compared to (i) the un-crosslinked samples and (ii) LAT9991-PAL in the presence of excess LAT8881 (SEQ ID NO:1; YLRIVQCRSVEGSCGF) was considered a positive signature. LAT9991-PAL, LAT9993-PAL and LAT7771-PAL were also used. LAT9993 (SEQ ID NO:41) has the amino acid sequence SCRSRPVESSC.
# human recombinant LANCL3 = target: T3, human recombinant LANCL3 (Homo sapiens, UniProt Q6ZV70); assay: In-gel fluorescence: photolabelling of recombinant LANCL3 with PAL probe, with or without excess LAT8881; assay type: binding; details: in-gel fluorescence after UV cross-linking
# T3 construct: human recombinant LANCL3 (amino acid residues 1-420); 10xHis (N); Myc (C); purchased ABCAM ab163277; host or cells: E. coli
# Experimental: as §3, §4
# • […] of human recombinant LANCL3 (amino acid residues 1-420; ABCAM catalog no. ab163277, ˜0.07 mg/ml; expressed in E. Coli and incorporating an N-terminal 10×His tag and a C-terminal Mvc tag; UniProt Accession no: Q6ZV70);
# • Vehicle DMSO • ±LAT8881 (a cyclic peptide fragment of human growth hormone; SEQ ID NO:1) • SEQ ID NO:1 as competitor @ 50, 100 or 200 μM, pre-incubation 10 min, […], incubation 30 min at room temperature on a plate agitator (protected from light), 4 μl of a stock solution @10 μM
# as §5, §6
# as §1, with “for” for “during”, “Rad” for “Rad's”
# as §2
# LANCL1, sequence (Q9QX69 whole entry): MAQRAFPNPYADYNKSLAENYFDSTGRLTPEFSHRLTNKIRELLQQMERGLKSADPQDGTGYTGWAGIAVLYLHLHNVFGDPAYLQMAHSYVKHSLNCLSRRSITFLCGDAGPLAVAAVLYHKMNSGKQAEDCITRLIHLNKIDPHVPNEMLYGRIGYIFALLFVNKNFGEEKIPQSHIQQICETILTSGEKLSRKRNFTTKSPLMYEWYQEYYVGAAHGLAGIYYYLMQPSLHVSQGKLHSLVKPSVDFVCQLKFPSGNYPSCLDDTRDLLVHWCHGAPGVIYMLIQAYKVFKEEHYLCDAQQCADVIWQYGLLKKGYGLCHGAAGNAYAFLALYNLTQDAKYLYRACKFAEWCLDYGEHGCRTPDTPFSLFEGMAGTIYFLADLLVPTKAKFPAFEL
# T1 sequence (O43813 with tags, fused parts or gaps): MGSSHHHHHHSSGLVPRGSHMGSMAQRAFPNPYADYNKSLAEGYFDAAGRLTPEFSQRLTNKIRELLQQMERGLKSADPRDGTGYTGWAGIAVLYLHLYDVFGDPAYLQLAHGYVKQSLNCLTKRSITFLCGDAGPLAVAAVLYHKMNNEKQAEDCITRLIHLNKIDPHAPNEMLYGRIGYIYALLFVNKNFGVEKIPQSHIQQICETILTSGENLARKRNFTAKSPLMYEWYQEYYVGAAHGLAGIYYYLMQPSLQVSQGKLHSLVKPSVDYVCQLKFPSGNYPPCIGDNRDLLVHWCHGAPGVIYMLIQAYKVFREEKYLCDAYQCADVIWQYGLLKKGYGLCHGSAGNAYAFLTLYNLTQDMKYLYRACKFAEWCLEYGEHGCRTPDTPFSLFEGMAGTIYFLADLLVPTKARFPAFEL
# T3 sequence (Q6ZV70 whole entry, the tested form may be a part): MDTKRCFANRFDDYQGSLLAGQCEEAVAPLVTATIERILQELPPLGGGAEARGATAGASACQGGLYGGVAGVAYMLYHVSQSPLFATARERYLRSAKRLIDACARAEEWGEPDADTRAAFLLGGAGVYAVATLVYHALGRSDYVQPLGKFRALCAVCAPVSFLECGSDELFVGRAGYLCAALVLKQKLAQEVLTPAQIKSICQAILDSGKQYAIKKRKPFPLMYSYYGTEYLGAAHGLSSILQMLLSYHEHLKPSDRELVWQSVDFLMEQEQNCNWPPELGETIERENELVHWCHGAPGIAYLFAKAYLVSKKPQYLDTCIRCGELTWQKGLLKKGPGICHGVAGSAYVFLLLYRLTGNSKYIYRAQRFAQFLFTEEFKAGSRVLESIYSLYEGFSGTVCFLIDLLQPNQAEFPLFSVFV
"Inhibition of LAT9991-PAL binding to recombinant LANCL1 by excess competitor (human recombinant LANCL1; probe LAT9991-PAL, excess unlabelled competitor)",Binding of PAL probe to recombinant LANCL1 (human recombinant LANCL1; in-gel fluorescence after UV (365 nm) cross-linking),Binding of PAL probe to recombinant LANCL2 (human recombinant LANCL2),Binding of PAL probe to recombinant LANCL3 (human recombinant LANCL3),Substance,Block of LAT9991-PAL binding to neuropathic DRG by excess unlabeled peptide (DRG neurons),Cross-linking of PAL probe to tissue homogenates of nerve from neuropathic animals [1],Molecular weight ranges of targets stained after gel separation ([1]; PAL probe cross-linked to nerve homogenates),LANCL1 bound / enriched in PAL probe cross-linked samples (mass spectrometry) (LANCL1)
inhibited,–,–,–,CRSVEGSCG (disulfide 1-8 (inferred)) [LAT9991],blocked,–,–,–
–,bound to recombinant LANCL1,bound to recombinant LANCL2,–,"LAT7771-PAL: cyclic peptide conjugate of LAT7771 (SEQ ID NO:52) with the PAL photo-activatable cross-linking group (CRIIHNNNC; disulfide 1-9 (inferred); also: ['PAL photo-activatable cross-linking group, structure and site not given here'])",–,shown to cross-link,"˜12-15 kD, ˜37 kD and ˜50 kD",enriched by several fold-changes; also recorded: bound to LANCL1
–,–,–,bound to recombinant LANCL3,"LAT9993-PAL: cyclic peptide conjugate of LAT9993 (SEQ ID NO:41) with the PAL photo-activatable cross-linking group (SCRSRPVESSC; disulfide 2-11 (inferred); also: ['PAL photo-activatable cross-linking group, structure and site not given here'])",–,shown to cross-link,–,enriched by several fold-changes; also recorded: bound to LANCL1

# — patent publication US20230064978A1, “CYCLIC PEPTIDE RECEPTOR LANTHIONINE SYNTHETASE C-LIKE PROTEIN (LANCL) AND USES THEREOF” (LATERAL IP PTY LTD, priority 2019, published 2023)
